Assay results: publication PMC7186457

Legend:
[1] = molecular target: FLAG-L4 (ribosomal protein L4) (Escherichia coli (expressed in BL21(DE3) rne131)) (UniProt P60723); assay: competition; conditions: EMSA: 30 C, 20 min, native 5% PAGE, ~2 ng RNA, 0.7-5.5 uM L4, buffer not given (cited method); footprinting: room temperature (25 C), RNase V1 in 1x RNA …
[2] = system: FLAG-L4 (ribosomal protein L4) (Escherichia coli (expressed in BL21(DE3) rne131)); assay: EMSA; conditions: EMSA: 30 C, 20 min, native 5% PAGE, ~2 ng RNA, 0.7-5.5 uM L4, buffer not given (cited method); footprinting: room temperature (25 C), RNase V1 in 1x RNA …

| Substance | binding [1] | Kd [2] [nM] |
| --- | --- | --- |
| GGGGGCUUGUCGUAGUUGACAGCAGGUUCAAUCUGAACCUCAGUUAGCCGAAUUUGGCUACCUAACAAUGCUCCCAAUCGGGGAGCUACGUAAGAACGGUUACACUCUCCCAUCAAUCGUAAUGGGUCUGAGGAGUAAUCAUUUUCGUUUAUAAAAUAAUUGGAGCUCUGGUCUC [S10-UTR RNA] | binds | – |
| GGGGCUUAACGUCGCGUAAAUUGUUUAACACUUUGCGUAACGUACACUGGGAUCGCUGAAUUAGAGAUCGGCGUCCUUUCAUUCUAUAUACUUUGGAGUUUUAAAAUGUCUCUAAGUACUGAAGCAACAGCUAAAAUCGUUUCUGAG [rpsO-UTR RNA] | no binding | – |
| tnaC-tnaA transcribed spacer RNA (gel shift) | – | 2100 |
